B1: Antibody No. 13 (antibody, V domains shown)
VH: QVQLVQSGGGLVQPGRSLRLSCAASGFTFDDYAMHWVRQAPGKGLEWVSGISWNSGSIGYADSVKGRFTISRDNAKNSLYLQMNSLRAEDTALYYCAKEDGSYALDYWGQGTLVTVSS
VL: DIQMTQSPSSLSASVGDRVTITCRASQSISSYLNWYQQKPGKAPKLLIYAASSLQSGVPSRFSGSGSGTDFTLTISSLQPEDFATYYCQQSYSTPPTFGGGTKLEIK
notes: human IgG1, lambda or kappa light chain; also called 432-G09
B2: Antibody No. 34 (antibody, V domains shown)
VH: QVQLVESGGGLVQPGRSLRLSCAASGFTFDDYAMHWVRQAPGKGLEWVSGISWNSGSIGYADSVKGRFTISRDNAKNSLYLQMNSLRAEDTALYYCAKEGGDSDFDYWGQGTLVTVSS
VL: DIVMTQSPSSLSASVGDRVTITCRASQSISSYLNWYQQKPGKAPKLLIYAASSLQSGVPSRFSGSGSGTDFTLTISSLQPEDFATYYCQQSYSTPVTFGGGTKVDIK
notes: human IgG1, lambda or kappa light chain; also called 447-B01
B3: Antibody No. 55 (antibody, V domains shown)
VH: QVQLVQSGAEVKKPGASVKVSCKASGYTFTSYYMHWVRQAPGQGLEWMGIINPSGGSTSYAQKFQGRVTMTRDTSTSTVYMELSSLRSEDTAVYYCARDDYGDYWGQGTLVTVSS
VL: QSALTQPASVSGSPGQSITIPCTGTSSDVGGYNYVSWYQQHPGKAPKLMIYEVSNRPSGVSNRFSGSKSGNTASLTISGLQAEDEADYYCSSYTSSSFSFGTGTKLTVL
notes: human IgG1, lambda or kappa light chain; also called 447-C08
B4: Antibody No. 23 (antibody, V domains shown)
VH: QVQLVQSGGGLVQPGRSLRLSCAASGFTFDDYAMHWVRQAPGKGLEWVSGISWNSGSIGYADSVKGRFTISRDNAKNSLYLQMNSLRAEDTALYYCAKDIAGGDYPVFDYWGQGTLVTVSS
VL: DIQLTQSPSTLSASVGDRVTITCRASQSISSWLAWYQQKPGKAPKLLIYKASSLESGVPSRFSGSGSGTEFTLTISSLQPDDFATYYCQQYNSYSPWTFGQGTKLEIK
notes: human IgG1, lambda or kappa light chain; also called 435-B08
B5: Antibody No. 30 (antibody, V domains shown)
VH: EVQLVQSGGGLVQPGGSLRLSCAASGFTFSSYAMSWVRQAPGKGLEWVSAISGSGGSTYYADSVKGRFTISRDNAKNSLYLQMNSLRAEDTAVYYCARVRVSDGRFDYWGQGTLVTVSS
VL: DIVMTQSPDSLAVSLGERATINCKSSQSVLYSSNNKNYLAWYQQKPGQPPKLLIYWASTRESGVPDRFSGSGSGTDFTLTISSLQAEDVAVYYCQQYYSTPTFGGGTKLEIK
notes: human IgG1, lambda or kappa light chain; also called 448-E04
B6: Antibody No. 31 (antibody, V domains shown)
VH: EVQLLESGGGVVQPGRSLRLSCAASGFTFSSYAMHWVRQAPGKGLEWVAVISYDGSNKYYADSVKGRFTISRDNSKNTVSLQMSSLRADDTAIYYCVKDTILIDWGQGTLVTVSS
VL: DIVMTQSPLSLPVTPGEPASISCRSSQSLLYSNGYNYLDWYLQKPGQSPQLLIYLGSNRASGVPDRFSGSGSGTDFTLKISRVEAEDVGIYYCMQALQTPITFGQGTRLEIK
notes: human IgG1, lambda or kappa light chain; also called 448-E06
B7: Antibody No. 43 (antibody, V domains shown)
V domain 1: QVQLVQSGAEVKKPGSSVKVSCKASGGTFSSYAISWVRQAPGQGLEWMGGIIPIFGTANYAQKSQGRVTITADESTSTAYMELSSLRSEDTAVYYCARESGSGNRIPYGMDVWGQGTMVTVSS
V domain 2: QSVLTQPPSVSGAPGQRVTISCTGSSSNIGAGYDVHWYQQLPGTAPKLLIYGNSNRPSGVPDRFSGSKSGTSASLAITGLQAEDEADYYCQSYDSSLSGPVVFGGGTQVTVL
notes: human IgG1, lambda or kappa light chain; also called 447-A07
B8: Antibody No. 42 (antibody, V domains shown)
VH: QVQLVESGGGVVQPGRSLRLSCAASGFTFSNYAMHWVRQAPGKGLEWVAVISYDGSKKYYADSVKGRFTISRDNSKNTLYLQMNSLGAEDMAVYYCAREDPRRGGIDYWGQGTLVTVSS
VL: QSVLTQPPPVSGAPGQRVTISCTGSSSNIGAGYDVHWYQQLPGTAPKLLIYGNSNRPSGVPDRFSGSKSGTSASLAITGLQAEDEADYYCQSYDSSLSGYVFGTGTKVTVL
notes: human IgG1, lambda or kappa light chain; also called 447-B06
B9: Antibody No. 47 (antibody, V domains shown)
VH: QVQLVQSGGGVVQPGRSLRLSCAASGFTFSSYAMHWVRQAPGKGLEWVAVISYDGSNKYYADSVKGRFTISRDNSKNTLYLQMNSLRAEDTAVYYCAREAGEGVDYWGQGTLVTVSS
VL: QSVLTQPPSVSGAPGQRVTISCTGSSSNIGAGYDVHWYQQLPGTAPKLLIYGNSNRPSGVPDRFSGSKSGTSASLAITGLQAEDEADYYCQSYDSSLSGYVFGTGTKLTVL
notes: human IgG1, lambda or kappa light chain; also called 447-A08
B10: Antibody No. 24 (antibody, V domains shown)
VH: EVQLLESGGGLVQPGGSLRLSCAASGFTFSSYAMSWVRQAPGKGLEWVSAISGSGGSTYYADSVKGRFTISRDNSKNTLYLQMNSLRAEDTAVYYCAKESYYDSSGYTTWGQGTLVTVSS
VL: QSVLTQPPSVSGAPGQRVTISCTGSSSNIGAGYDVHWYQQLPGTAPKLLIYGNSNRPSGVPDRFSGSKSGTSASLAITGLQAEDEADYYCQSYDSSLSGYVFGTGTKLTVL
notes: human IgG1, lambda or kappa light chain; also called 447-C09
B11: Antibody No. 26 (antibody, V domains shown)
VH: EVQLLESGGGVVQPGRSLRLSCAASGFTFSSYAMHWVRQAPGKGLEWVAVISYDGSNKYYADSVKGRFTISRDNSKNTLYLQMNSLRAEDTAVYYCARELYYGPGGMDVWGQGTLVTVSS
VL: QSVLTQPPSVSGAPGQRVTISCTGSSSNIGAGYDVHWYQQLPGTAPKLLIYGNSNRPSGVPDRFSGSKSGTSASLAITGLQAEDEADYYCQSYDSSLSGSVFGGGTKLTVL
notes: human IgG1, lambda or kappa light chain; also called 447-D06
B12: Antibody No. 48 (antibody, V domains shown)
VH: EVQLVQSGGGVVQPGRSLRLSCAASGFTFSSYAMHWVRQAPGKGLEWVAVISYDGSNKYYADSVKGRFTISRDNSKNTLYLQMNSLRAEDTAVYYCAAESAYSSSWSGLRFDPWGQGTLVTVSS
VL: QSVLTQPPSVSGAPGQRVTISCTGSSSNIGAGYDVHWYQQLPGTAPKLLIYGNSNRPSGVPDRFSGSKSGTSASLAITGLQAEDEADYYCQSYDSSLSGYVFGTGTKLTVL
notes: human IgG1, lambda or kappa light chain; also called 447-B08
B13: Antibody No. 45 (antibody, V domains shown)
VH: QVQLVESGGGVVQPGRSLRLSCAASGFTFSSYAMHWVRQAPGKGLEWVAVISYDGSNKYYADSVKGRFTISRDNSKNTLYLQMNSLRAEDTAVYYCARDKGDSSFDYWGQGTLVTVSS
VL: QSVLTQPPSVSGAPGQRVTISCTGSSSNIGAGYDVHWYQQLPGTAPKLLIYGNSNRPSGVPDRFSGSKSGTSASLAITGLQAEDEADYYCQSYDSSLSGVVFGGGTKVTVL
notes: human IgG1, lambda or kappa light chain; also called 447-E08
B14: Antibody No. 51 (antibody, V domains shown)
VH: QVQLQESGGGVVQPGRSLRLSCAASGFTFSSYAMHWVRQAPGKGLEWVAVISYDGSNKYYAGSVKGRFTISRDNSKNTLYLQMNSLRAEDTAVYYCARDWRGVYFDYWGQGTLVTVSS
VL: QSALTQPASVSGSPGQSITISCTGTSSDVGGYNYVSWYQQHPGKAPKLMIYEVSNRPSGVSNRFSGSKSGNTASLTISGLQAEDEADYYCSSYTSSSTLVFGGGTKLTVL
notes: human IgG1, lambda or kappa light chain; also called 447-E05
B15: Antibody No. 28 (antibody, V domains shown)
VH: QVQLVQSGGGVVQPGRSLRLSCAASGFTFSSYAMHWVRQAPGKGLEWVAVISYDGSNKYYADSVKGRFTISRDNSKNTLYLQMNSLRAEDTAVYYCARDSGVVMDYWGQGTLVTVSS
VL: QSALTQPASVSGSPGQSITISCTGTSSDVGGYNYVSWYQQHPGKAPKLMIYDVSNRPSGVSNRFSGSKSGNTASLTISGLQAEDEADYYCSSYTSSSTLVFGGGTKVTVL
notes: human IgG1, lambda or kappa light chain; also called 447-F08
B16: Antibody No. 46 (antibody, V domains shown)
VH: QVQLVQSGGGVVQPGRSLRLSCAASGFTFSSYAMHWVRQAPGKGLEWVAVISYDGSNKYYADSVKGRFTISRDNSKNTLYLQMNSLRAEDTAVYYCARDQYDILTGYGGTALDYWGQGTLVTVSS
VL: QSALTQPPSASGSPGQSVTISCTGTSSDVGGYNYVSWYQQHPGEAPKLMIYEVSKRPSGVPDRFSGSKSGNTASLTVSGLQAEDEADYYCSSYAGSNNLVFGGGTKLTVL
notes: human IgG1, lambda or kappa light chain; also called 447-B07
B17: Antibody No. 41 (antibody, V domains shown)
VH: QVQLVQSGGGVVQPGRSQRLSCAASGFTFSNAWMSWVRQAPGKGLEWVSAISGSGGSTYYADSVKGRFTISRDNSKNTLYLQMNSLRAEDTAVYYCAANEGGDAFDIWGQGTMVTVSS
VL: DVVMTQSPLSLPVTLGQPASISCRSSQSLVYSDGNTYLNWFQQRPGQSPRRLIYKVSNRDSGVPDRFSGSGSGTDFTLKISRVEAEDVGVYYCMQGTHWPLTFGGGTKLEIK
notes: human IgG1, lambda or kappa light chain; also called 447-E10
B18: Antibody No. 53 (antibody, V domains shown)
VH: QVQLVQSGGGVVQPGRSLRLSCAASGFTFSSYGMHWVRQAPGKGLEWVAVISYDGSNKYYADSVKGRFTISRDNSKNTLYLQMNSLRAEDTAVYYCAKDFSDAFDIWGQGTMVTVSS
VL: QSVLTQPPSVSAAPGQKVTISCSGSSSNIGNNYVSWYQQLPGTAPKLLIYDNNKRPSGIPDRFSGSKSGTSATLGITGLQTGDEADYYCGTWDSSLSAVVFGGGTKVTVL
notes: human IgG1, lambda or kappa light chain; also called 447-G07
B19: Antibody No. 54 (antibody, V domains shown)
VH: EVQLLESGGGVVQPGRSLRLSCAASGFTFSSYGMHWVRQAPGKGLEWVAVISYDGSNKYYADSVKGRFTISRDNSKNTLYLQMNSLRAEDTAVYYCAKGSGWYFDYWGQGTLVTVSS
VL: not shown
notes: human IgG1, lambda or kappa light chain; also called 447-C12
B20: Antibody No. 40 (antibody, V domains shown)
VH: EVQLLESGGGLVKPGGSLRLSCAASGFTFSDYYMSWIRQAPGKGLEWVSYISSSSSYTNYADSVKGRFTISRDNAKNSLYLQMNSLRAEDTAVYYCARLSTVTRAFDIWGQGTMVTVSS
VL: DIQLTQSPSSVSASVGDRVTITCRASQGISSWLAWYQQKPGKAPKLLIYAASSLQSGVPSRFSGSGSGTDFTLTISSLQPEDFATYYCQQANSFPPTFGQGTKLEIK
notes: human IgG1, lambda or kappa light chain; also called 447-F11
B21: Antibody No. 52 (antibody, V domains shown)
VH: QVQLVQSGAEVKKPGASVKVSCKASGYTFTSYGISWVRQAPGQGLEWMGWISAYNGNTNYAQKLQGRVTMTTDTSTSTAYMELRSLRSDDTAVYYCASWGVVGGMDVWGQGTLVTVSS
VL: DIQMTQSPSSVSASVGDRVTITCRASQGISSWLAWYQQKPGKAPKLLIYAASSLQSGVPSRFSGSGSGTDFTLTISSLQPEDFATYYCQQANSFPLTFGGGTKVDIK
notes: human IgG1, lambda or kappa light chain; also called 448-F05
B22: Antibody No. 49 (antibody, V domains shown)
VH: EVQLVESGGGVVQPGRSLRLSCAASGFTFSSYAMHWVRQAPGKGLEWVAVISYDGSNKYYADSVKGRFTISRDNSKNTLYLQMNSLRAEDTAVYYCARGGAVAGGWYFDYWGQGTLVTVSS
VL: DIVMTQSPSSVSASVGDRVTITCRASQGISSWLAWYQQKPGKAPKLLIYAASSLQSGVPSRFSGSGSGTDFTLTISSLQPEDFATYYCQQANSFPPTFGQGTKLEIK
notes: human IgG1, lambda or kappa light chain; also called 448-H04
B23: Antibody No. 57 (antibody, V domains shown)
VH: QVQLVESGAEVKKPGASVKVSCKASGYTFTSYYMHWVRQAPGQGLEWMGIINPSGGSTSYAQKFQGRVTMTRDTSTSTVYMELSSLRSEDTAVYYCARMTTSLGFDYWGQGTLVTVSS
VL: DIQLTQSPSSVSASVGDKVTITCRASQGISNWLAWYQLKPGKAPKLLVYAASSLQSGVPSRFSGSGSGTDFTLTISNLQPEDFATYYCQQANSLPLTFGGGTRLEIK
notes: human IgG1, lambda or kappa light chain; also called 447-H10
B24: Antibody No. 39 (antibody, V domains shown)
VH: QVQLVESGGGLVQPGRSLRLSCAASGFTFDDYAMHWVRQAPGKGLEWVSGISWNSGSIGYADSVKGRFTISRDNAKNSLYLQMNSLRAEDTALYYCAKDTTWGGSYPYFDYWGQGTLVTVSS
VL: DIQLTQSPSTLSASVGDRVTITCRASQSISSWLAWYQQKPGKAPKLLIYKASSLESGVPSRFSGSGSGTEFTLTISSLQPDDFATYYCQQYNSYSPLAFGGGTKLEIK
notes: human IgG1, lambda or kappa light chain; also called 448-H05

Molecular target: T1, Perilipin epitope 5 peptide AKPSLLSRVGALTNT (SEQ ID NO. 332) (human, Biotin-PEG Spacer and GGSGGS Linker (SEQ ID NO. 438) at the N-terminus, or Biotin-PEG Spacer and AAAAA Linker (SEQ ID NO. 439) at the C-terminus)
T1 construct: Two biotinylated variants were used for selection and ELISA; On the peptide array it stood without biotin; also called target peptide
T1 peptide: AKPSLLSRVGALTNT
Assay: phage display selection and ELISA on biotinylated target peptide
B1: binds.
B2: binds.

Molecular target: T2, Perilipin epitope 6 peptide EVRVPWLHSLAAAQE (SEQ ID NO. 333) (human, Biotin-PEG Spacer and GGSGGS Linker (SEQ ID NO. 438) at the N-terminus, or Biotin-PEG Spacer and AAAAA Linker (SEQ ID NO. 439) at the C-terminus)
T2 construct: Two biotinylated variants were used for selection and ELISA; On the peptide array it stood without biotin; also called target peptide
T2 peptide: EVRVPWLHSLAAAQE
Assay: as above
B3: binds.
B4: binds.
B5: binds.
B6: binds.
B7: binds.
B8: binds.
B9: binds.
B10: binds.
B11: binds.
B12: binds.
B13: binds.
B14: binds.
B15: binds.
B16: binds.
B17: binds.
B18: binds.
B19: binds.
B20: binds.
B21: binds.
B22: binds.
B23: binds.
B24: binds.

Source: patent US20220153822A1 (ALYTAS THERAPEUTICS, published 2022)
